Data published in patent US20090291081A1 (AbbVie / Abbott, published 2009).
Changes are numbered by the printed parent chain. Values belong to the binder of their own block, whether it stands above or below them.

Tests used:
[1] = target: T1, human IL-1β (human, UniProt P01584 117-269); test: cell-based or functional assay
[2] = target: T2, human IL-1α (human, UniProt P01583 113-271); test: cell-based or functional assay
T2 sequence (looked up): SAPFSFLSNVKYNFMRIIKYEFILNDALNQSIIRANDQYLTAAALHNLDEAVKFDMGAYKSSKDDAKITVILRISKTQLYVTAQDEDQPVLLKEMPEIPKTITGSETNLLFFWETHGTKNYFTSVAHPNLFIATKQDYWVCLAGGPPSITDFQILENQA

[3] = target: T1, human IL-1β; test: yeast surface Fab display, flow cytometry titration
[4] = target: T1, human IL-1β; test: cell-based or functional assay; remark: listed apart in the source
[5] = target: T2, human IL-1α; test: cell-based or functional assay; remark: listed apart in the source

B1: IgG pairing ABT1-122-750X with ABT2-65-17 (bispecific antibody, V domains shown)
VH: EVQLLESGGGLVQPGGSLRLSCVASGFTFEDYQMGWVRQAPGKGLEWVSSISAMGNRTYYADSVKGRFTISRDDSKNTLYLQMNSLRAEDTAVYYCAQNLVRLGRSRWMFDYWGQGTLVTVSS
VL: DIQMTQSPSSLSASVGDRVAITCSASQHIWTEISWYQQKPGKAPKLLIYGSASRQKGVPSRFSGSGSGTDFTLTISSLQPEDFATYYCKQFAYFPNTFGQGTKVEIKR
MRC5 IL-1β [1]: 1 nM | MRC5 IL-1α [2]: 20 nM

B3: ABT2-108-615/ABT1-122 Fab on yeast surface (Fab, V domains shown)
VH: EVQLLESGGGLVQPGGSLRLSCAASGFTFAEYTMMWVRQAPGKGLEWVSRIGQDGKNTVIRDSVKGRFTISRDNSKNTLYLQMNSLRAEDTAVYYCAKYTGRVGVHHLFDYWGQGTLVTVSS
VL: B1 VL with A20T, S24R, H28P, I33L, S34N, A52S, R54L, K56S, K89Q, N96A
EC50 [3]: 0.214 nM | fold improvement in affinity over ABT2-108 [3]: 25 fold

B4: ABT2-108-614/ABT1-122 Fab on yeast surface (Fab, V domains shown)
VH: B3 VH with V59Y, I60Y, R61A, V103I, G104L, V105R
VL: B1 VL with A20T, S24R, H28P, I33L, S34N, A52S, R54L, K56S, K89Q, N96A
EC50 [3]: 1.01 nM

B5: ABT2-108-606/ABT1-122 Fab on yeast surface (Fab, V domains shown)
VH: B3 VH with V59Y, I60Y, D62S
VL: B1 VL with A20T, S24R, H28P, I33L, S34N, A52S, R54L, K56S, K89Q, N96A
EC50 [3]: 0.343 nM

B9: ABT2-108-617/ABT1-122 Fab on yeast surface (Fab, V domains shown)
VH: B3 VH with V59Y, I60Y, R61A, V103I, G104F, V105T
VL: B1 VL with A20T, S24R, H28P, I33L, S34N, A52S, R54L, K56S, K89Q, N96A
EC50 [3]: 0.224 nM | fold improvement in affinity over ABT2-108 [3]: 25 fold

B10: ABT2-108-603/ABT1-122 Fab on yeast surface (Fab, V domains shown)
VH: B3 VH with G52T, Q53D, D54A, V59Y, I60Y, R61A
VL: B1 VL with A20T, S24R, H28P, I33L, S34N, A52S, R54L, K56S, K89Q, N96A
EC50 [3]: 1.35 nM

B11: ABT2-108-608/ABT1-122 Fab on yeast surface (Fab, V domains shown)
VH: B3 VH with V59Y, I60T
VL: B1 VL with A20T, S24R, H28P, I33L, S34N, A52S, R54L, K56S, K89Q, N96A
EC50 [3]: 0.366 nM

B14: ABT2-65-17/ABT1-95-15 huIgG1/K wt (bispecific antibody, V domains shown)
VH: B1 VH
VL: DIQMTQSPSSLSASVGDRVTITCRASQPIVRNLRWYQQKPGKAPKLLIYSSSYLEPGVPSRFSGSGSGTDFTLTISSLQPEDFATYHCQQGYRWPVTFGQGTKVEIKR
MRC5 IL-1β [1]: 0.094 nM | MRC5 IL-1α [2]: 2.7 nM

Further lines, results first:

EC50 [3]: 0.21 nM
B2: ABT2-108-605/ABT1-122 Fab on yeast surface (Fab, V domains shown)
VH: B3 VH with V59Y, I60Y, D62E, S63D
VL: B1 VL with A20T, S24R, H28P, I33L, S34N, A52S, R54L, K56S, K89Q, N96A

EC50 [3]: 0.324 nM
B6: ABT2-108-616/ABT1-122 Fab on yeast surface (Fab, V domains shown)
VH: B3 VH with V59Y, I60Y, R61A, V103I, G104Y, V105N
VL: B1 VL with A20T, S24R, H28P, I33L, S34N, A52S, R54L, K56S, K89Q, N96A

EC50 [3]: 0.474 nM
B7: ABT2-108-602/ABT1-122 Fab on yeast surface (Fab, V domains shown)
VH: B3 VH with Y32E, T33K, M34Y, V59Y, I60Y, R61A
VL: B1 VL with A20T, S24R, H28P, I33L, S34N, A52S, R54L, K56S, K89Q, N96A

EC50 [3]: 0.267 nM
B8: ABT2-108-612/ABT1-122 Fab on yeast surface (Fab, V domains shown)
VH: B3 VH with V59Y, I60Y, R61A, V103I, G104M, V105G
VL: B1 VL with A20T, S24R, H28P, I33L, S34N, A52S, R54L, K56S, K89Q, N96A

EC50 [3]: 1.35 nM | fold improvement in affinity over ABT2-108 [3]: 5 fold
B12: ABT2-108-604/ABT1-122 Fab on yeast surface (Fab, V domains shown)
VH: B3 VH with I51V, G52T, Q53Y, V59Y, I60Y, R61A
VL: B1 VL with A20T, S24R, H28P, I33L, S34N, A52S, R54L, K56S, K89Q, N96A

IL-1β IC50 [4]: 200 nM | IL-1α IC50 [5]: 1500 nM | MRC5 IL-1α [2]: 300 nM
B13: ABT2-108/ABT1-95-3 hu IgG1/K wt (bispecific antibody, V domains shown)
VH: EVQLLESGGGLVQPGGSLRLSCAASGFTFAEYTMMWVRQAPGKGLEWVSRIGQDGKNTYYADSVKGRFTISRDNSKNTLYLQMNSLRAEDTAVYYCAKYTGRVGVHHLFDYWGQGTLVTSS
VL: B14 VL with V30H, R31G, E55Q, P56S
